Reference: patent US20240254182A1 (PROVINCIAL HEALTH SERVICES AUTHORITY, published 2024)
Numbering of substitutions follows the chain as printed.

T1: WT G-CSFR(Ig-CRH), purified, tag cleaved (human, UniProt Q99062 26-331)
T1 construct: also called G-CSFRWT; wild type G-CSFR(Ig-CRH)
T1 chain: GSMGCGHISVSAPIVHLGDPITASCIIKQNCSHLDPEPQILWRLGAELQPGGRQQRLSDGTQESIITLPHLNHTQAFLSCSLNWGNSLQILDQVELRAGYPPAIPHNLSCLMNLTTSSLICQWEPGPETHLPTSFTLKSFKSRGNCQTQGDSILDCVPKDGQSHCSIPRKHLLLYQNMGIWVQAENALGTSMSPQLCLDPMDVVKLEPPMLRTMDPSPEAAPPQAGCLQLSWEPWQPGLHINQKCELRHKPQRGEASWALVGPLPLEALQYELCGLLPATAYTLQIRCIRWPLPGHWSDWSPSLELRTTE

T2: WT G-CSF, purified from insect cells, tag cleaved (human, UniProt P09919 31-206)
T2 construct: protein of the SPR; also called G-CSFWT; wild type G-CSF
T2 sequence: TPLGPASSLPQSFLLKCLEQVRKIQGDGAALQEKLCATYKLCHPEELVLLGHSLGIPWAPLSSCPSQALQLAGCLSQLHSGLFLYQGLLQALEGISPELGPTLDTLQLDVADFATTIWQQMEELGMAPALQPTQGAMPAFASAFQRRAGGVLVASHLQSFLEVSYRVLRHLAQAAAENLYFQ

B1: design 9 G-CSFE, tag cleaved (ligand)
chain: T2 sequence with D104R, L108K, D112R, Q119R, E122K
notes: also called design 9 G-CSFE mutant
B2: design 117 G-CSFE, tag cleaved (ligand)
chain: T2 sequence with E46R, E122R, E123R
notes: also called design 117 G-CSFE mutant
B3: design 130 G-CSFR(Ig-CRH)E, tag cleaved (receptor)
chain: SMGCGHISVSAPIVHLGDPITASCIIKQNCSHLDPEPQILWELGAELQPGGRQQRLSDGTQESIITLPHLNHTQAFLSCSLNWGNSLQILDQVELRAGYPPAIPHNLSCLMNLTTSSLICQWEPGPETHLPTSFTLKSFKSRGNCQTQGDSILDCVPKDGQSHCSIPDKHLLLYQNMGIWVQAENALGTSMSPQLCLDPMDVVKLEPPMLRTMDPSPEAAPPQAGCLQLSWEPWQPGLHINQKCELRHKPQRGEASWALVGPLPLEALQYELCGLLPATAYTLQIRCIRWPLPGHWSDWSPSLELRTTE
notes: also called 130 ECD (Ig-CRH)
B4: design 134 G-CSFE, tag cleaved (ligand)
chain: T2 sequence with E46R, L108K, D112R, E122R, E123R
B5: design 134 G-CSFR(Ig-CRH)E, tag cleaved (receptor)
chain: B3 chain with R142E
notes: also called design 137 G-CSFR(Ig-CRH)E
B6: design 300 G-CSFR(Ig-CRH)E, tag cleaved (receptor)
chain: B3 chain with E42R, F76K, Q92K
B7: design 303 G-CSFR(Ig-CRH)E, tag cleaved (receptor)
chain: B3 chain with E42R, E94K
B8: design 304 G-CSFR(Ig-CRH)E, tag cleaved (receptor)
chain: B3 chain with E94K
B9: design 307 G-CSFR(Ig-CRH)E, tag cleaved (receptor)
chain: B3 chain with D168R, D198K, D201K, R289E
B10: design 401 G-CSFR(Ig-CRH)E, tag cleaved (receptor)
chain: B3 chain with R289D
B11: design 402 G-CSFR(Ig-CRH)E, tag cleaved (receptor)
chain: B3 chain with D168E, Q175E, R289E

Key:
[1] = molecular target: T1, WT G-CSFR(Ig-CRH), purified, tag cleaved; assay: SPR, WT G-CSFR(Ig-CRH) amine-coupled, G-CSFE injected, single-cycle kinetics
Protocol: (§1) The SPR binding assays were carried out on a Biacore T200 instrument (GE Healthcare, Mississauga, ON, Canada) with PBS-T (PBS+0.05% (v/v) Tween 20) running buffer at a temperature of 25° C. CM5 Series S sensor chip, Biacore amine coupling kit (NHS, EDC and 1 M ethanolamine), and 10 mM sodium acetate buffers were all purchased from GE Healthcare. PBS running buffer with 0.05% Tween20 (PBS-T) was purchased from Teknova Inc. (Hollister, CA). Designs were assessed in three different immobilization orientations.
To assess binding affinity of G-CSFE to G-CSFRWT, recombinant G-CSFRWT purified as described in Example 5 was captured as described above in this Example. Using single-cycle kinetics, six concentrations of a two-fold dilution series of each G-CSFE mutant starting at […] with a blank buffer control were sequentially injected as described above. The same sample titration was also performed on a reference cell with no variants captured. The G-CSFRWT surface was regenerated as described above.

[2] = molecular target: T2, WT G-CSF, purified from insect cells, …; assay: SPR, single-cycle kinetics
[3] = molecular target: B5; assay: SPR, G-CSFRE amine-coupled, G-CSFE injected, single-cycle kinetics
Protocol: as §1
To determine binding affinity of G-CSFE to G-CSFRE the G-CSFRE mutant was captured by standard amine coupling as described by the manufacturer (GE LifeSciences). Briefly, immediately after EDC/NHS activation, a 5 μg/mL solution of G-CSFRE in 10 mM NaOAc, pH 5.0, was injected at a flow rate of 5 μL/min until a receptor density of ˜700-900 RU was reached. The remaining active groups were quenched by a 420 s injection of 1 M ethanolamine hydrochloride-NaOH pH 8.5 at 10 μL/min. Using single-cycle kinetics, six concentrations of a two-fold dilution series of the corresponding G-CSFE mutant starting at 200 nM with a blank buffer control were sequentially injected at 25 μL/min for 300 s with a 1800 s dissociation phase, resulting in a set of sensorgrams with a buffer blank reference. The same sample titration was also performed on a reference cell with no variants captured. The chip was regenerated to prepare for the next injection cycle by one pulse of 10 mM glycine/HCl, pH 2.0, for 30 s at 30 μL/min.
Double-referenced sensorgrams from duplicate or triplicate repeat injections were analyzed using Biacore™ T200 Evaluation Software v3.0 and fit to the 1:1 Langmuir binding model.

[4] = molecular target: T2, WT G-CSF, purified from insect cells, …; assay: SPR (Biacore T200), single-cycle kinetics

B1
KD fold change (against WT:WT) [1]: 79 fold

B2
KD fold change (against WT:WT) [1]: 3.4 fold

B3
binding result [2]: no binding

B4
KD fold change (against WT:WT) [1]: 465 fold | KD fold change (against WT:WT) [3]: 1 fold

B5
binding result [4]: no binding

B6
binding result [4]: no binding

B7
binding result [4]: no binding

B8
binding result [4]: no binding

B9
binding result [4]: no binding

B10
binding result [2]: no binding

B11
binding result [2]: no binding
